Molecular target: T1, His-SlmA/SBS (E. coli), P0C093
T1 chain: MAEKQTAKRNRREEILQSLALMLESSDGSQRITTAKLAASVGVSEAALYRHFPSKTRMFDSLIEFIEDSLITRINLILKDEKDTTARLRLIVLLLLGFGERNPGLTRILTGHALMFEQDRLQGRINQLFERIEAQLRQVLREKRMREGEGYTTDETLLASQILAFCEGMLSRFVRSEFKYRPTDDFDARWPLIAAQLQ
Assay: BLI
Settings: remark: other sources report otherwise

B1: FtsZ-360, P0A9A6 1-360 (domain or fragment)
chain: MFEPMELTNDAVIKVIGVGGGGGNAVEHMVRERIEGVEFFAVNTDAQALRKTAVGQTIQIGSGITKGLGAGANPEVGRNAADEDRDALRAALEGADMVFIAAGMGGGTGTGAAPVVAEVAKDLGILTVAVVTKPFNFEGKKRMAFAEQGITELSKHVDSLITIPNDKLLKVLGRGISLLDAFGAANDVLKGAVQGIAELITRPGLMNVDFADVRTVMSEMGYAMMGSGVASGEDRAEEAAEMAISSPLLEDIDLSGARGVLVNITAGFDLRLDEFETVGNTIRAFASDNATVVIGTSLDPDMNDELRVTVVATGIGMDKRPEITLVTNKQVQQPVMDRYQQHGMAPLTQEQKPVAKVVND
Kd: 82 µM

Source: paper PMC4364296
